A short description of series [1]: Western blot of FOXC1 level. As to conditions: glycan lost; control: mock, sh-Scb or untreated.
The nature of series [2]: CHX chase Western blot (protein stability), SH-SY5Y. The note with it: glycan lost; control: sh-Scb. For orientation: In western blotting, separated proteins are transferred to a membrane and probed.
The nature of series [3]: dual-luciferase FOXC1 reporter, SH-SY5Y. The note with it: glycan lost; control: wild-type Flag-FOXC1.
Series [4] deals with T1, recombinant GST-tagged OGT (wild-type) (human, UniProt O15294 1-1046).
T1 construct: O-GlcNAc transferase (OGT), human cDNA (printed as 3,131 bp) from Genechem; wild-type construct as against truncations
T1 sequence (looked up): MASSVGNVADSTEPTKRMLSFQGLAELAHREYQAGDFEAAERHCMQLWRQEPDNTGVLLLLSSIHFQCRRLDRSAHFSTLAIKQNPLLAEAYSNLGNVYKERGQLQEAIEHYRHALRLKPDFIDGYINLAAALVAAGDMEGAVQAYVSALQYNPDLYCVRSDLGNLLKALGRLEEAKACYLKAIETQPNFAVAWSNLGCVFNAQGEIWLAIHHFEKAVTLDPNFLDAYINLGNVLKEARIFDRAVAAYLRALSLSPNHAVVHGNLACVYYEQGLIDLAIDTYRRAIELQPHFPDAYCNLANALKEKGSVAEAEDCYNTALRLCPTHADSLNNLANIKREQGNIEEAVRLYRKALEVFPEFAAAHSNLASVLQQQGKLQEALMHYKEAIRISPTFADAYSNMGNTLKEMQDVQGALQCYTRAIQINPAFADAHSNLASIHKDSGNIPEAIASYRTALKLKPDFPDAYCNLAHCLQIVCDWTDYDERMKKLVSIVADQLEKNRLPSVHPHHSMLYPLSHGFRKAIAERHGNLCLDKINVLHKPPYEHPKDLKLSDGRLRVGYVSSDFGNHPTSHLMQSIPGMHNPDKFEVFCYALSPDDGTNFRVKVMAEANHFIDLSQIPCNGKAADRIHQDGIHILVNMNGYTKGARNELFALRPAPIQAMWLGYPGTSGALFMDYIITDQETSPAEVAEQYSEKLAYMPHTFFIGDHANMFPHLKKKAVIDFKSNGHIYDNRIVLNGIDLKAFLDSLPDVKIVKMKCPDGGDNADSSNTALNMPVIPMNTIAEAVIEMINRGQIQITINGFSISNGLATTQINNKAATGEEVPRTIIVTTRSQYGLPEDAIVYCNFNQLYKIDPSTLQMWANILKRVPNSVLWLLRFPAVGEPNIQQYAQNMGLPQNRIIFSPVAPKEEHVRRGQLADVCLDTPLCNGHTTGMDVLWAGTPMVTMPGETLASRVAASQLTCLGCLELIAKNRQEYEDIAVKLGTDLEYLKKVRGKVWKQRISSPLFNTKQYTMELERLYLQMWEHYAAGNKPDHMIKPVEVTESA
Put plainly: co-IP; recombinant GST-tagged OGT and MBP-tagged FOXC1 proteins (wild-type or truncations), co-IP and Western blot. The note with it: both partners purified.

The nature of series [5]: CHX chase Western blot (protein stability). The note with it: glycan lost; control: untreated.

B1: forkhead box C1 (FOXC1): sh-OGT (protein)
parent chain: MQARYSVSSPNSLGVVPYLGGEQSYYRAAAAAAGGGYTAMPAPMSVYSHPAHAEQYPGGMARAYGPYTPQPQPKDMVKPPYSYIALITMAIQNAPDKKITLNGIYQFIMDRFPFYRDNKQGWQNSIRHNLSLNECFVKVPRDDKKPGKGSYWTLDPDSYNMFENGSFLRRRRRFKKKDAVKDKEEKDRLHLKEPPPPGRQPPPAPPEQADGNAPGPQPPPVRIQDIKTENGTCPSPPQPLSPAAALGSGSAAAVPKIESPDSSSSSLSSGSSPPGSLPSARPLSLDGADSAPPPPAPSAPPPHHSQGFSVDNIMTSLRGSPQSAAAELSSGLLASAAASSRAGIAPPLALGAYSPGQSSLYSSPCSQTSSAGSSGGGGGGAGAAGGAGGAGTYHCNLQAMSLYAAGERGGHLQGAPGGAGGSAVDDPLPDYSLPPVTSSSSSSLSHGGGGGGGGGGQEAGHHPAAHQGRLTSWYLNQAGGDLGHLASAAAAAAAAGYPGQQQNFHSVREMFESQRIGLNNSPVNGNSSCQMAFPSSQSLYRTSGAFVYDCSKF
In the case of B1, the expression_or_secretion entry in series [1] is recorded as “decreases”.

B2: forkhead box C1 (FOXC1): sh-OGT #1 (protein)
parent chain: B1 parent chain
Regarding B2, the degradation_or_half_life entry in series [2] is listed as “decreases”.

B3: forkhead box C1 (FOXC1): S8A (protein)
parent chain: B1 parent chain
In the case of B3, the “other: transcriptional activity” value in series [3] is recorded as “decreases”.

B4: recombinant MBP-tagged FOXC1 (wild-type) (natural protein, human, UniProt Q12948 1-553, looked up)
chain: B1 parent chain
notes: forkhead box C1 (FOXC1), human cDNA (1,662 bp) from Genechem; wild-type construct as against truncations; the printed AD1 domain is residues 1 to 68; a cDNA of 1,662 bp fits 553 codons and a stop codon
Consider B4, for which, in series [4], the binding result is recorded as “binds”.

B5: forkhead box C1 (FOXC1): OSMI-1 (protein)
parent chain: B1 parent chain
As for B5, in series [5], the degradation_or_half_life result is listed as “decreases”. The expression_or_secretion result in series [1] is “decreases”.
